Measured values reported in US20230279124A1.

Target: human IgE (human) (UniProt P01854)
Assay: BLI (Octet RED 384), GI-305 captured on AHC biosensor, IgE 1.6 to 100 nM as analyte

Sequence of UniProt P01854 (P01854 other isoform, or with tags, fused parts or gaps): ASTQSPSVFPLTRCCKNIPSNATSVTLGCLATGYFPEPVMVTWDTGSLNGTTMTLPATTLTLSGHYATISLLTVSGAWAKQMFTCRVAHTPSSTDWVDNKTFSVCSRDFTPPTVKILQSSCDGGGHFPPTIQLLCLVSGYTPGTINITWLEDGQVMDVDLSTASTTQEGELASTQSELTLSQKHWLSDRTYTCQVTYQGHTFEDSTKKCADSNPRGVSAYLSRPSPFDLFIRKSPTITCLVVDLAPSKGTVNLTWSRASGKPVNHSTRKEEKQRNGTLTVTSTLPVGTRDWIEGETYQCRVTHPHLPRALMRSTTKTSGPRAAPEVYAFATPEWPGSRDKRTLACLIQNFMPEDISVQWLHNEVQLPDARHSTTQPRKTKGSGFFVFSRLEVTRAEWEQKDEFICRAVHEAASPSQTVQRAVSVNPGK

- Kd: 0.5 nM
- koff: 9.74e-05 s⁻¹
- kon: 201000 M⁻¹ s⁻¹
B1: GI-305 (FcεRIα ECD-Fc-anti-IL-4R scFv) fusion protein dimer (Fc fusion)
chain: VPQKPKVSLNPPWNRIFKGENVTLTCNGNNFFEVSSTKWFHNGSLSEETNSSLNIVNAKFEDSGEYKCQHQQVNESEPVYLEVFSDWLLLQASAEVVMEGQPLFLRCHGWRNWDVYKVIYYKDGEALKYWYENHNISITNATVEDSGTYYCTGKVWQLDYESEPLNITVIKAPREKYWLQGSGGGGSGGGGSGGGGSAESKYGPPCPPCPAPEAAGGPSVFLFPPKPKDQLMISRTPEVTCVVVDVSQEDPEVQFNWYVDGVEVHNAKTKPREEQFNSTYRVVSVLTVLHQDWLNGKEYKCKVSNKGLPSSIEKTISKAKGQPREPQVYTLPPSQEEMTKNQVSLTCLVKGFYPSDIAVEWESNGQPENNYKTTPPVLDSDGSFFLYSRLTVDKSRWQEGNVFSCSVLHEALHNHYTQKSLSLSLGGGGGSGGGGSGGEVQLVESGGGLEQPGGSLRLSCAGSGFTFRDYAMTWVRQAPGKCLEWVSSISGSGGNTYYADSVKGRFTISRDNSKNTLYLQMNSLRAEDTAVYYCAKDRLSITIRPRYYGLDVWGQGTTVTVSSGGGGSGGGGSGGGGSGGGGSDIVMTQSPLSLPVTPGEPASISCRSSQSLLYSIGYNYLDWYLQKSGQSPQLLIYLGSNRASGVPDRFSGSGSGTDFTLKISRVEAEDVGFYYCMQALQTPYTFGCGTKLEIK
